This experiment deals with hTEM8-AP (UniProt Q9H6X2). In words: Biacore affinity measurement of Fab.
hTEM8-AP, sequence (Q9H6X2 33-321): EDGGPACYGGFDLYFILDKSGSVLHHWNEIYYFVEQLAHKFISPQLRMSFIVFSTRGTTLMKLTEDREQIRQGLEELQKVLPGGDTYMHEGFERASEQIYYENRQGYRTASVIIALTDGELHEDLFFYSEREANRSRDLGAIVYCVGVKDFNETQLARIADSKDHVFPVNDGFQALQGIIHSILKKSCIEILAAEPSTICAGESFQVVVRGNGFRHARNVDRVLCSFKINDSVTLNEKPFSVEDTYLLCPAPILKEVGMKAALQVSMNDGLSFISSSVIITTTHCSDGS

B1: M825 Fab (anti-TEM8 fragment antigen-binding) (Fab, V domains shown)
VH: QVQLVQSGAEVKKPGTSVKVSCKVPGYTFSSYAISWVRQAPGQGLEWMGGIIPIFGTTNYAQKFQGRVTITGEESTSTVYMELSSLRSEDTAVYYCARDTDYMFDYWGQGTLVTVSS
VL: SSELTQDPVVSVALGETVSITCQGDNLRDFYASWYQQKPGQAPLLVMYGKNRRPSGIPDRFSGSTSGNTLSLTITGAQAEDEADYYCSSRDNSKHVVFGGGTKVTVL
As for B1, the Kd (as a rule, the concentration at which binding is half-saturated) turned out to be 0.0591 nM; the koff (usually a measure of how fast the partners let go of each other) was found to be 0.00018 s⁻¹; the association rate constant (kon) – broadly, a measure of how fast the partners come together – was 3.05e+06 M⁻¹ s⁻¹.

The values above are taken from patent US20170112926A1.
